The results in this text go back to publication PMC5380656 (The Journal of Allergy and Clinical Immunology, 2017).

For assay [1], the target named is T1, staphylococcal enterotoxin A (Staphylococcus aureus, strain , UniProt P0A0L2).
T1 construct: source: bought: Toxin Technology
In words: ELISA. A general note: In an ELISA, binding on a coated surface is turned into a signal by an enzyme label.

Assay [2] deals with biotin-labeled staphylococcal enterotoxin E (Staphylococcus aureus, strain , UniProt P12993, biotin (site not stated)). In words: SPR; Biacore T200; […]; 25°C; […]. Conditions: both partners purified. A general note: Surface plasmon resonance follows binding to a sensor surface in real time, without labels.
Assay [3] has as its target T2, staphylococcal enterotoxin C1 (Staphylococcus aureus, strain , UniProt P01553).
T2 construct: source: bought: Toxin Technology
In words: ELISA. Conditions: both partners purified.

Assay [4] has as its target T3, staphylococcal enterotoxin D (Staphylococcus aureus, strain , UniProt P20723).
T3 construct: source: bought: Toxin Technology
As to the kind of experiment: ELISA.

Assay [5] has as its target T4, staphylococcal enterotoxin E (Staphylococcus aureus, strain , UniProt P12993).
T4 construct: source: bought: Toxin Technology
In words: ELISA.

Assay [6] deals with biotin-labeled staphylococcal enterotoxin A (Staphylococcus aureus, strain , UniProt P0A0L2, biotin (site not stated)). As to the kind of experiment: SPR; Biacore T200; […]; 25°C; […]. Conditions: both partners purified.

B1: anti-SEA antibody HPK-018_1B6, recombinant IgG1 (antibody, V domains shown)
VH: EVQLVESGGEVKKPGASVKVSCKTSGYTFSSYYMHWVRQAPGQGLEWMGVINPSGGSIKYAQKFQGRVTMTRDTSTTTIYMDLSSLRSDDTAVYYCAYWGADGFDIWGQGTMVTVSS
VL: QSVLTQPPSASGTPGQRVTISCSGSSSNIGSNSVNWYQQVPGTAPKLLTYGNNQRRSGVPDRFSGSKSGTSASLAISGLQSEDEADYSCAVWDDSLSAWVFGGGTKLTVL
notes: source: HEK 293T, transfected, culture supernatant
For B1, the binding result in assay [1] (one partner purified) is given as “binds”.

B2: anti-SEE antibody HPK-014_1G2, recombinant IgG1 (antibody, V domains shown)
VH: QVQLVESGGGVVPPGGSLRLSCATSGFKFNDYDMHWVRQAPGKGLEWVASIRYHGNKDYYADSVKGRFTISRDNSKNTLSLQMNSLRPEDTAIFYCARDRAQGIVAAAGTSFGYWGQGTLVTVSS
VL: SYELTQPPSVSVSPGQTARITCSADALPKQYVYWYQQKSGQAPVLVMYKDSERPSGIPERFSGSTSGSTVMLTISGVQEEDEAVYYCQSGDTSGFDPDVAFGGGTKLTVL
notes: also called 1G2 IgG1
As to B2, the binding result in assay [2] is on record as “binds”; in assay [3] it was “binds”; in assay [4] (both partners purified) it was “no binding”; in assay [5] (one partner purified) it was “binds”; in assay [1] (both partners purified) it was “no binding”.

B3: anti-SEE antibody HPK-014_1G2, Fab (Fab, V domains shown)
VH: B2 VH
VL: B2 VL
notes: source: Expi293, purified (LambdaFabSelect agarose)
In the case of B3, the binding result in assay [5] (both partners purified) is “binds”.

B4: anti-SEE antibody HPK-014_1G2, recombinant IgE (antibody, V domains shown)
VH: B2 VH
VL: B2 VL
notes: also called 1G2 IgE; anti-SEE IgE 1G2
As to B4, the binding result in assay [5] (both partners purified) is recorded as “binds”.

B5: anti-SEE antibody HPK-016_203, recombinant IgG1 (antibody, V domains shown)
VH: EVQLVESGAEVKKPGESLKISCKGSGNTFTNYWIAWVRQRPGKGLEWMGIIYPGDSDTRYSLSFQGQVTISVDKSINTAYLQWSSLRASDTAIYFCVRHCSGGRCSSAPLDSWGQGTLVTVSS
VL: NFMLTQPPSVSESPGKTVTISCTRSSGSIGTYYVHWYQQRPGSAPTTLIYDDSHRPSGVPDRFSGSVDSSSNSASLIISGLKTEDEADYYCLSHDTTNFVFGGGTKLTVL
notes: also called 203 IgG1
With B5, the binding result in assay [2] is given as “binds”; in assay [3] it was “binds”; in assay [4] (both partners purified) it was “no binding”; in assay [5] (one partner purified), “binds”; in assay [1] (both partners purified), “no binding”.

B6: anti-SED antibody HPK-014_1A4, recombinant IgG1 (antibody, V domains shown)
VH: EVQLLESGGGLVQPGGSLRLSCAASGFNFDSYAMSWVRQAPGKGLEWVSSISSSGGATYYADSVKGRSTISRDNSKNTVSLQMNSLRAEDTAVYYCAKKRRYDAVTGYLFDMWGQGTMVTVSS
VL: DIVMTQSPFSLAVSLGERATMNCKSSQSVLHSSNNENYLAWYQQKPGQPPKLLIYWASTRESGVPDRFSGSGSGTDFTLTISSLQAEDVAVYYCQQFYSPAPYTFGQGTKLEIK
notes: as for B1
As for B6, the binding result in assay [4] (one partner purified) is on record as “binds”.

B7: anti-SEA antibody 1F3, recombinant IgG1 (antibody, V domains shown)
VH: QVQLVESGTDVKKPGSSVKVSCKTSGGTFGDHGITWVRQAPEKGLEYVGRIIPNPGTAYHAQKFQGRVTITADESTGTAYLELSRLSFDDTAVYYCARGMTGYVGAYDYWGQGTLVTVSS
VL: QSVLTQPPSASGTPGQRVSISCSGSSSNIGSNSVSWYQLLPGTAPKLLIYFSHQRPSGVPDRFSASKSGTSASLAISDLQPEDEADYYCASWDDRLNGPVFGGGTKLTVL
notes: also called 1F3 IgG1; HPK-016_1F3
With B7, the binding result is “binds” in assay [6], “no binding” in assay [5] (both partners purified) and “binds” in assay [1] (both partners purified).

B8: anti-SED antibody HPK-018_2D6, recombinant IgG1 (antibody, V domains shown)
VH: QVQLVQSGGGLVQPGRSLRLSCRASGFTFGEYAMSWVRQAPGKGVEWVSFIRSRTYGATTEYAASVKGRFTISRDDSESIVYLQMNSLKTEDTAVYYCTTYCSSTSCQIDYWGQGTLVTVSS
VL: QSALTQPPSASALLGASIKLTCTLSSEHSTYIIEWFQQRPGRSPQYIMDVKSDGSYTKGDGIPDRFMGSSSGADRYLTLSNLQSDDEAEYYCGESHTIDGQVGYVFGTGTKVTVL
notes: as for B1
With B8, the binding result in assay [4] (one partner purified) was “binds”.
